The data set is described as follows: label from the status in PepcDB records.
As to “MDNSGIYVGLDIGTTSIKVIVAERVKGQMNVIGVGSARSNGLSRGVIVDIDKAAETIRSAVRQAEEKASIEIKKVIAGVPANLVKIERCRGMIAVADESKEINNEDVQNVAAAALVQSLPPEREVLDVIPDEFVVDGFDGIKDPRGMVGVRLEMHGTLFTGPKTIIHNTRKALEKAGLQIEQIVIAPLALSSLVLNDGEQDFGSIIIDMGGGQTTAAVIHDHQLKYTYVDQEGGQYITKDISVVLNTSIENAEKLKRDYGYADAQQASDDELFPVDVVGQSTPEQISEQYLAEIIEARLDQIFDKVKQHLDEIRALELPGGIVLTGGVAALPGITDLAAQRFGTRVRVFTPNQMGLRHPSFDEALAVIKYQAALSEVTLLVKSALTGDTRASVALEFADTTPAPSQPAAQPKKATKKQSAPQAPQEQADPDHKGTVERVKGFFNHFFD”, the protein production result is recorded as “failed”.

For “MDNSLLSEIWRQSLAFPWLSAVILNSFLLALAAIAPKKLLTPWGYGHAWVLGVIIWAALGWRGYLVVLAYFFVGSAVTRIGQKEKEAAGIAEKRSGQRGPENVWGSALTAALCALAIAFGPEPWQLWLALGYVASFSTKLSDTTASEVGKAYGKNTFLITTLQPVPRGTEGAVSVEGTLAGFAAGLALAVLGYGVGLISFGGIIFSTLAAFIATNLESVIGATLQNKWPWLTNEVVNGINTFLGAAIAIGIEATAQLI”, the protein production result is given as “failed”.

On to “MDNVGCDKRISWPCHCSKSRTAPRRGSHLMARGRKRRFNPNIPGHIEQEALPKGIYWENGRWYMHEDHPDGGRQVKRTVAFRSARLSELHAIAESRLRGDVRGTLRYLFDRFHEASEFKELQHDTQKDYRRYADTLANYVRKDGSKLGGVQLEHITTPVVQRLLETFANGRPATRLQQALPPTPSKANHLYRYLRRTLAWGVRHGYCKENPAIGVLQAKEAKAFRMPTPDAFEAVLQFARERGALKPHTKGSFPSYLPPVMVLAYSARLRGIEVCSLTDAHRLEHGVHASRRKGSRDTLTTWDAHMTEAWEALLARRSEICNKPGRNFPIPMKPEERFFLIEQTGNPIVKSSLDSAWQRFIPAAIRDGVIKSEERFSLHGLKHRGVTDTEGNRGDKQDAAGHVSSSMTDRYDHELPVVKPPRRR”, for which the protein production entry was “failed”.

Regarding “MDPCTGGNGCVHICQSENGTARCACHAGYQLPEDKNICEDINECAEGLSYCGHCCVNSMGSFTCACQTGFELGADRKQCYSNWQQSQPRLYLSLSDFFLLFPVHDYTLPGIELEIVNSCEKNNSVCSHHREHEIGAPRCSCNHGHQLDSDEKTCIDLDECENGEACCAQLCINYLGGYKCRCQEGFQITSNGCECDALDDDELEEEEEE”, the protein production result is reported as “failed”.

Take “MDPKKADIIRLEALPQDLLGGIVAKVGATTAEDFHNCILVCKELGASANDKHVFKTLNLALLVKKPLSGTQTPSYYENMS”: the protein production result is “not failed”.

For the sequence “MDPLKRVENELKKCVKCGACRAHCPAFATFGKEPAVARGKVALAQHLLKGDIELDDATYAAMSKCLLCGSCVEKCPNDVPTDEIVVVAREALSGQRGLTTFHAAVGRVIRNRSLMKFGAAAARILGPLFFRKVPETSGLRLRFPLPFLGGKRHIPSIAKKPFLDRHPEVIPGEPGKPRIVYFVGCMTNFCYPQVGEAALALFRHLGCTVIIPKNQQCCGLPGMSGGDLDTVRGLAEKNLAELERYEADYIMTACATCGGALHKFYPNLVGKRHPELAARLKAIAEKTVDAAQLLQKLGLNPEETGAGSDIRVTYHDPCHLRTRAITRQPRELLQGTPGVELAEMEGADKCCGLGGTFNVYHYESSLAINKMKSAAIINTGADAVVTGCPGCMMQLSDGLKQQRNRTRVLHTLEILARSIRP”, the protein production entry is “failed”.

As to “MDPNQPVKFTEFMPDSGGIRTKFIVKGSNFGEDKSQVKVYFKDEVGNEREALVLGVKPDVIYAQVPKQAGGESHVRVEIAGKEAELSNAEKTFKYIVTSSVSTVVGKAKEGGNKDGTLGETTFNTPRYVAVDNDDNVFIFDSDGRTRLSSIEQNKTITLLDGMVIDQPLFIDKEKKQLFGPCDNANFGCFLFDANVSWVADKMGQLLANGGWMHSVVLDPVDSTFVIYRQNTGQLWTQPFDKNRRTLNPNKAKRIGTLYNTGSNGLCAYNPVDKYVYCVLHSKSAVYRFKLTRDADGWPALDGDIDEYIPGAGAGFRDGDVQEAQFKEPRGIAIDKEGNLYIADVGNNRIRKVDTKLNVVTTIAGSGAAGYKDGDPLEAQFNQPWGVYLDKNEFLYIADQNNHCIRKLAIELEHHHHHH”, the protein production entry is listed as “failed”.

Regarding “MDPNVITVTSYANIAIIKYWGKENQAKMIPSTSSISLTLENMFTTTSVSFLPDTATSDQFYINGILQNDEEHTKISAIIDQFRQPGQAFVKMETQNNMPTAAGLSSSSSGLSALVKACDQLFDTQLDQKALAQKAKFASGSSSRSFFGPVAAWDKDSGAIYKVETDLKMAMIMLVLNAAKKPISSREGMKLCRDTSTTFDQWVEQSAIDYQHMLTYLKTNNFEKVGQLTEANALAMHATTKTANPPFSYLTKESYQAMEAVKELRQEGFACYFTMDAGPNVKVLCLEKDLAQLAERLGKNYRIIVSKTKDLPDV”, the protein production entry is given as “not failed”.

With “MDPRQFEHTVVADNDIHSIVMSYLLHNCFNETADSLASSTGVKQPAIDRDNMERRKQIIHFILERKALKAFELTEQLAQDLLEKNKDLQFDLLCLHFVELICAGNCTEALKFGKTRLAPFGKVKKYVEKLEDVMALLAYEDPEKSPMFHLLSSEYRQQVADNLNRTILEHTNHPSYTPMERIIQQVTVVRQYLTEENGKDAFPPFSLKDSLKG”, the protein production entry is reported as “failed”.

With “MDPSRLLRTERERKAVMPPFSPGPLPIDPVLPALLEALASHGRAVLIAPPGAGKTTRVPPALLGALWLGGQKVVMLEPRRLATRAAARRMAFEAGEAVGQRFGFRVRGESRSGPLTRVEVMTEGILTRRIQDDPELAGVGCVILDEFHERGLQGDLAFALLREIQGALRPDLRLLVMSATLDGAAIAALMDDAPVIESHGRAFPVTITHGERPAARDLGPAMARTILRALEDEPGSVLAFLPGEREIAAVAGALARALPADTVLRPLYGALPPAEQDAAISPCPPGQRKVVLATDIAETSLTIEGVRIVVDSGLRRSPRFDPQTGLSRLDTVRISQAGAEQRRGRAGRLEPGVCLRLWPEAEHRALPAQETPEILAADLAPLALELARWGARDAAALCWPTPPPPGPLAQARDLLTSLGALEPAGGLSAHGAAMAALPLHPRLAHMVLAAKADGADDGALACLLAALLAERDILRPGPGAARDRDLTTRLEILIGQGRRAPAGQILRQPTLGAVRDEAARLRQLAGIAASASPEPARCGRVLARAYPDRIAQARPGQPGRFLLSSGRGALIDVGDPLAAAAFLAVAEVDGAGSEARVFLAAPLDRADLEELFDEALRPCETVTWDPRAEAVVARVERRLGALVFESRDLPDRADPARTTPAVCAGIRRLGLGCLPWTRETDRLRARVAFLHRVHSADDWPDLSDDALLASLADWLGPWLDGITRRSAFARIDLMAALKALIGWRRLADLDRLAPAQMDVPSGVKVALDYEVPDGPVLAARVQQLFGLTRTPAVLDGGHPVLVHLLSPAGRPLQVTRDLAGFWKGSYAEVRKDMRGRYPKHPWPEDPTGAEATNRVKPRGQ”, the protein production result is “failed”.

With “MDPWDTYNIPLDHQHRLRNRRDHRHPSFSSTLLDQIYRSIDDSSTNSSSMRKTKHQNREDTRVSANRRDDFNRSKNLKTIEPVFFKHSSSSSSDSSGFSSSESDYFYRRSKSSPAISHPKPIRTTVERFERSPQNHRPNSSNKQEHGSFLKTKSKALKIYSDLKKVKQPISPGGRLATFLNSIFTGAGNTKKLNKINTTVTSTTAAAAAASSTTTCSSASSFSRSCLSKTPSSSEKSKRSVRFCPVNVIFDEDSSKYNNKNNKVYGNNEREYESIRHTLENRVMEENRRVIEAAKELLRSYQKKNKEVIEVSVEDDEEDDDDDALSCTSSDLFELDNLSAIGIDRYREELPVYETTRLNTNRIISR”, the protein production entry is reported as “failed”.

Take “MDQESNATSQDILKQHAAHYESDMGGLPEALVQLAEYAPETFDAYSRMRTTMLKSEADGAKLPLKYKHLILVVLDAIRDEPIGIVNHTRAAMNAGLSVDELIEGILLGIIVYGMPAWGKTGRKAVTFAVEFEKELAGKRT”: the protein production result is reported as “not failed”.

On to “MDQKELQVRKEIQELSFLIFTEPNNYKHYYERGILYGGEHIKSTECRESDYHGDYSQAIEDFDKVIELQPNFANAYYHKACIYFDLGIDDDEAESLLEKALALEPNNSAYTIKYAEVITYHGENGDIAAELLEKVLVQDYSADNCILSAGYLLQYASYDFLIGNDVQALQTYQKAMKRLQHAVEKDHECLEYATNMWSDFAEGCGYDHESIKNGSSLLLPQISVWM”, for which the protein production entry is recorded as “failed”.

Regarding “MDQKPQPAKTHATEVTVLEGKTMGTFWRASIPGIDAKRSAELKEKIQTQLDADDQLLSTYKKDSALMRFNDSQSLSPWPVSEAMADIVTTSLRIGAKTDGAMDITVGPLVNLWGFGPEQQPVQIPSQEQIDAMKAKTGLQHLTVINQSHQQYLQKDLPDLYVDLSTVGEGYAADHLARLMEQEGISRYLVSVGGALNSRGMNGEGLPWRVAIQKPTDKENAVQAVVDINGHGISTSGSYRNYYELDGKRLSHVIDPQTGRPIEHNLVSVTVIAPTALEADAWDTGLMVLGPEKAKEVVRREGLAVYMITKEGDSFKTWMSPQFKSFLVSEKNLEHHHHHH”, the protein production entry is “not failed”.

Consider “MDQMEKITTGVSYTTSAVGTGYWFLQLLDRVSPSQWAAIGVLGSLLFGLLTYLTEVYWQ”, for which the protein production result is given as “failed”.

As for “MDREALDRKRTWVTQGPIVKVILALATPIVAARLLAATQESVDAIFLGRVSTEDLAAPAAASPLLWLFAGLGIGINTTLSALVSQAIGARDYASAQRYASKLLGATLMLGAASALAIILTAETVFILQGFQGRSLEVALAYTLVEAVGMPFMLALFYFNAVMAASGDTRTPFKVSALSSILNVILDPILIFGLILLPPLGAVGAAVATVLARAAAVSIAFYLLLRGAPGFRVKPSMPDRQLIGHILRIGGPVSLQRLVVSMGFLVMMGIVARLGAPVVAAYNVSLVIIHIVQSATFGFNIATATVVGQNLGASNISRAVRAAYTGVALVFGLLSIGAVAIVGGRSMLVSLFTSIEEVQFYAERMISIVALGMPFLGAFFTAMGVARGSGRTAFISALGIARLWLLRIPAAYTLVYIYSLGDMGVWLAMTLSNIIAGTLAIAWVAGRTWAKPIVKRVPPEPLGEKPPAIPEPAINR”, the protein production result is recorded as “failed”.

As to “MDRFENMNAFVRVVETGSISAAADRMDIAKSVVSRRLKELEEHLGVELFHRTTRQMNLTDSGRAFYQQSVRILADVLEAEHATSQFHGRLKGHLKVAVPLSFGLMHLGAAISTFLQTHPDIEFDLDFNDRQVDLLAEGFDLAIRIANLPDSSLIARRLAPIQAVMCASPAYLERMGTPQAPEELIRHRCLVYNLVSHSDNWNVYGTTGELIKTRIIPYLKASNGEFLRDAAVDGLGIVLLPTFIVYREIQRGALIPILTGYHYAQLAAYAIYPQTRHLSQRVRAFVDFLSQRFEGMPYWDACLNQ”, the protein production result is “failed”.

For the sequence “MDRGEQGLLRTDPVPEEGEDVAATISATETLSEEEQEELRRELAKVEEEIQTLSQVLAAKEKHLAEIKRKLGINSLQELKQNIAKGWQDVTATSAYKKTSETLSQAGQKASAAFSSVGSVITKKLEDVKNSPTFKSFEEKVENLKSKVGGTKPAGGDFGEVLNSAANASATTTEPLPEKTQESL”, the protein production entry is on record as “failed”.

“MDRIIEKLDHGWWVVSHEQKLWLPKGELPYGERANFDLVGQRALQIGEWQGEPVWLVQQQRRHDMGSVRQVIDLDVGLFQLAGRGVQLAEFYRSHKYCGYCGHEMYPSKTEWAMLCSHCRERYYPQIAPCIIVAIRRDDSILLAQHTRHRNGVHTVLAGFVEVGETLEQAVAREVMEESGIKVKNLRYVTSQPWPFPQSLMTAFMAEYDSGDIVIDPKELLEANWYRYDDLPLLPPPGTVARRLIEDTVAMCRAEYE”: the protein production result was “not failed”.

For the origin of these results see a protein production outcome set (Wang et al. 2014).
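Also: failed if final PepcDB status was selected cloned or expressed and not failed if soluble or beyond.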
